To fix the notation:
T1: HA69 peptide on HLA DQB1*06:02/DQA1*01:02 (DQ0602) (human)
T1 peptide: AMERNAGSGIIISDT

B1: TCR CIVRVGTNMDSNYQLIW / CASSKSYNEQFF (TCR)
alpha TRAV26-1 TRAJ33 CDR3: CIVRVGTNMDSNYQLIW
beta TRBV19 TRBJ2-1 CDR3: CASSKSYNEQFF
B2: TCR CATVAYNTDKLIF / CASSPGRTGGTYYGYTF (TCR)
alpha TRAV17 TRAJ34 CDR3: CATVAYNTDKLIF
beta TRBV4-3 TRBJ1-2 CDR3: CASSPGRTGGTYYGYTF
B3: TCR CAVSRAGANNLFF / CASSQGLGPGLFNQPQHF (TCR)
alpha TRAV21 TRAJ36 CDR3: CAVSRAGANNLFF
beta TRBV4-3 TRBJ1-5 CDR3: CASSQGLGPGLFNQPQHF
B4: …-1 (TCR)
alpha TRAV2 TRAJ20 CDR3: CAVEDKHDYKLSF
beta TRBV9 TRBJ1-2 CDR3: CASSFKEGSNYGYTF
B5: TCR CATVGYNTDKLIF / CASSQGQAATNEKLFF (TCR)
alpha TRAV17 TRAJ34 CDR3: CATVGYNTDKLIF
beta TRBV4-3 TRBJ1-4 CDR3: CASSQGQAATNEKLFF
B6: …-1 (TCR)
alpha TRAV38-2/DV8 TRAJ39 CDR3: CAYRSFNNAGNMLTF
beta TRBV28 TRBJ1-6 CDR3: CASTETGSNSPLHF
B7: TCR CAANLDNFNKFYF / CATSRGIQPNEKLFF (TCR)
alpha TRAV25 TRAJ21 CDR3: CAANLDNFNKFYF
beta TRBV15 TRBJ1-4 CDR3: CATSRGIQPNEKLFF
B8: …-1 (TCR)
alpha TRAV26-2 TRAJ41 CDR3: CILRDSNSGYALNF
beta TRBV7-8 TRBJ1-5 CDR3: CASSSGTHRSPQHF
B9: TCR CAAPGANNLFF / CASSQPHRTSVTGELFF (TCR)
alpha TRAV13-1 TRAJ36 CDR3: CAAPGANNLFF
beta TRBV4-2 TRBJ2-2 CDR3: CASSQPHRTSVTGELFF
B10: …-1 (TCR)
alpha TRAV9-2 TRAJ8 CDR3: CALSEGSTGFQKLVF
beta TRBV7-8 TRBJ1-3 CDR3: CASSVAGNGNTIYF
B11: TCR CATGSYNTDKLIF / CASSPGLAGGTGELFF (TCR)
alpha TRAV17 TRAJ34 CDR3: CATGSYNTDKLIF
beta TRBV4-3 TRBJ2-2 CDR3: CASSPGLAGGTGELFF
B12: …-1 (TCR)
alpha TRAV9-2 TRAJ4 CDR3: CALPSLSGGYNKLIF
beta TRBV7-8 TRBJ1-3 CDR3: CASSLAGNGNTIYF
B13: …-1 (TCR)
alpha TRAV17 TRAJ54 CDR3: CATDAAGAQKLVF
beta TRBV19 TRBJ2-1 CDR3: CASSILAGVYNEQFF
B14: TCR839 (TCR)
alpha TRAV12-2 TRAJ37 CDR3: CAVNPPWSNTGKLIF
beta TRBV19 TRBJ2-5 CDR3: CASTRGVGTSGAKETQYF
B15: …-1 (TCR)
alpha TRAV12-3 TRAJ39 CDR3: CATSYNNAGNMLTF
beta TRBV4-2 TRBJ2-5 CDR3: CASSQGTSGEETQYF
B16: …-1 (TCR)
alpha TRAV21 TRAJ46 CDR3: CAVRPKEGSGDKLTF
beta TRBV2 TRBJ2-2 CDR3: CASSESGRGPGELFF
B17: TCR CATDGGGIGAGSYQLTF / CATSRGGSPPYEQYF (TCR)
alpha TRAV17 TRAJ28 CDR3: CATDGGGIGAGSYQLTF
beta TRBV15 TRBJ2-7 CDR3: CATSRGGSPPYEQYF
B18: TCR819 (TCR)
alpha TRAV17 TRAJ34 CDR3: CATAAYNTDKLIF
beta TRBV4-3 TRBJ1-2 CDR3: CASSQAMTGGSDYGYTF
B19: TCR CAGSSANQAGTALIF / CSARGGQGAPSPLHF (TCR)
alpha TRAV35 TRAJ15 CDR3: CAGSSANQAGTALIF
beta TRBV20-1 TRBJ1-6 CDR3: CSARGGQGAPSPLHF
B20: …-1 (TCR)
alpha TRAV8-6 TRAJ42 CDR3: CAVMGYGGSQGNLIF
beta TRBV4-3 TRBJ2-1 CDR3: CASSQELGVYNEQFF
B21: TCR CATDSYNTDKLIF / CASSQGLGPTNYGYTF (TCR)
alpha TRAV17 TRAJ34 CDR3: CATDSYNTDKLIF
beta TRBV4-3 TRBJ1-2 CDR3: CASSQGLGPTNYGYTF
B22: TCR872 (TCR)
alpha TRAV17 TRAJ34 CDR3: CATVGYNTDKLIF
beta TRBV4-3 TRBJ1-4 CDR3: CASSQGLGPTNEKLFF
B23: …-1 (TCR)
alpha TRAV5 TRAJ8 CDR3: CAEMDTGFQKLVF
beta TRBV6-5 TRBJ1-1 CDR3: CASSGQGSTEAFF
B24: TCR821 (TCR)
alpha TRAV26-1 TRAJ23 CDR3: CIVMLTTNQGGKLIF
beta TRBV19 TRBJ2-4 CDR3: CASSPGLAGGGSIQYF
B25: TCR CATDSYNTDKLIF / CASSQGAGAQTYYGYTF (TCR)
alpha TRAV17 TRAJ34 CDR3: CATDSYNTDKLIF
beta TRBV4-3 TRBJ1-2 CDR3: CASSQGAGAQTYYGYTF
B26: TCR CIVRVLTNQGGKLIF / CSAGSGLGGYNEQFF (TCR)
alpha TRAV26-1 TRAJ23 CDR3: CIVRVLTNQGGKLIF
beta TRBV20-1 TRBJ2-1 CDR3: CSAGSGLGGYNEQFF
B27: TCR CALGPGDNQGGKLIF / CASSLAQAPAGETQYF (TCR)
alpha TRAV9-2 TRAJ23 CDR3: CALGPGDNQGGKLIF
beta TRBV11-1 TRBJ2-5 CDR3: CASSLAQAPAGETQYF
B28: TCR CIVSPHGSGNTGKLIF / CASSIGARGQLFF (TCR)
alpha TRAV26-1 TRAJ37 CDR3: CIVSPHGSGNTGKLIF
beta TRBV19 TRBJ1-4 CDR3: CASSIGARGQLFF
B29: TCR806 (TCR)
alpha TRAV26-1 TRAJ33 CDR3: CIVRGGTNMDSNYQLIW
beta TRBV19 TRBJ1-6 CDR3: CASTGQGNSPLHF
B30: TCR CAAFENVLHC / CASSERPYPGETQYF (TCR)
alpha TRAV13-1 TRAJ35 CDR3: CAAFENVLHC
beta TRBV6-1 TRBJ2-5 CDR3: CASSERPYPGETQYF
B31: …-1 (TCR)
alpha TRAV19 TRAJ45 CDR3: CALSEDAGGGADGLTF
beta TRBV12-3 TRBJ2-5 CDR3: CASRRHQQETQYF
B32: TCR CAVSDRDSGNTPLVF / CASSQGDVNYGYTF (TCR)
alpha TRAV8-6 TRAJ29 CDR3: CAVSDRDSGNTPLVF
beta TRBV4-3 TRBJ1-2 CDR3: CASSQGDVNYGYTF
B33: TCR CAVSEGRSNQGGKLIF / CASSSQGRENEQYF (TCR)
alpha TRAV8-6 TRAJ23 CDR3: CAVSEGRSNQGGKLIF
beta TRBV19 TRBJ2-7 CDR3: CASSSQGRENEQYF
B34: …-1 (TCR)
alpha TRAV10 TRAJ41 CDR3: CVVSEGGYALNF
beta TRBV5-1 TRBJ1-5 CDR3: CASSDGTDSNQPQHF
B35: TCR CVVRGQAGTALIF / CASSGHWNTEAFF (TCR)
alpha TRAV10 TRAJ15 CDR3: CVVRGQAGTALIF
beta TRBV19 TRBJ1-1 CDR3: CASSGHWNTEAFF
B36: TCR CAVQELARLMF / CASSVEGYSSPLHF (TCR)
alpha TRAV20 TRAJ31 CDR3: CAVQELARLMF
beta TRBV6-1 TRBJ1-6 CDR3: CASSVEGYSSPLHF
B37: …-1 (TCR)
alpha TRAV10 TRAJ26 CDR3: CVVSPTGGQNFVF
beta TRBV6-2 TRBJ2-6 CDR3: CASSYWGLGANVLTF
B38: TCR867 (TCR)
alpha TRAV17 TRAJ34 CDR3: CATDAYNTDKLIF
beta TRBV4-3 TRBJ1-3 CDR3: CASSQGRTASGNTIYF
B39: …-1 (TCR)
alpha TRAV29/DV5 TRAJ48 CDR3: CAAKGGGNEKLTF
beta TRBV12-3 TRBJ1-3 CDR3: CASTPRVLQFSGNTIYF
B40: …-1 (TCR)
alpha TRAV21 TRAJ30 CDR3: CAVGDDKIIF
beta TRBV12-3 TRBJ1-1 CDR3: CASSSRSGLKAFF
B41: TCR100 (TCR)
alpha TRAV8-3 TRAJ24 CDR3: CAVVTTDSWGKFQF
beta TRBV19 TRBJ1-5 CDR3: CASSDSPTGHGNQPQHF
B42: …-1 (TCR)
alpha TRAV27 TRAJ26 CDR3: CKYGQNFVF
beta TRBV19 TRBJ2-3 CDR3: CASSRPGLNTDTQYF
B43: …-1 (TCR)
alpha TRAV2 TRAJ40 CDR3: CAVEDRDSGTYKYIF
beta TRBV18 TRBJ2-1 CDR3: CASSPSRGAPEYNEQFF
B44: TCR CAAPGANNLFF / CASSGTGGQGYNEQFF (TCR)
alpha TRAV13-1 TRAJ36 CDR3: CAAPGANNLFF
beta TRBV2 TRBJ2-1 CDR3: CASSGTGGQGYNEQFF
B45: TCR766 (TCR)
alpha TRAV17 TRAJ34 CDR3: CATASYNTDKLIF
beta TRBV4-3 TRBJ1-5 CDR3: CASSQGATGGSNQPQHF
B46: TCR CATDAYNTDKLIF / CASSQGAVPAGNTIYF (TCR)
alpha TRAV17 TRAJ34 CDR3: CATDAYNTDKLIF
beta TRBV4-3 TRBJ1-3 CDR3: CASSQGAVPAGNTIYF
B47: …-1 (TCR)
alpha TRAV38-2/DV8 TRAJ39 CDR3: CAYRSANNAGNMLTF
beta TRBV6-5 TRBJ1-5 CDR3: CASRTSGGNQPQHF
B48: TCR CAVGATDSWGKFQF / CASSIDATGHSNQPQHF (TCR)
alpha TRAV8-3 TRAJ24 CDR3: CAVGATDSWGKFQF
beta TRBV19 TRBJ1-5 CDR3: CASSIDATGHSNQPQHF
B49: …-1 (TCR)
alpha TRAV8-4 TRAJ9 CDR3: CAVNGGFKTIF
beta TRBV6-1 TRBJ2-1 CDR3: CASRDRNQYNEQFF
B50: TCR CILRGGTNQGGKLIF / CSAEGQGAGNTIYF (TCR)
alpha TRAV26-2 TRAJ23 CDR3: CILRGGTNQGGKLIF
beta TRBV20-1 TRBJ1-3 CDR3: CSAEGQGAGNTIYF
B51: …-1 (TCR)
alpha TRAV20 TRAJ52 CDR3: CAVQAPGTSYGKLTF
beta TRBV24-1 TRBJ2-3 CDR3: CATSVGTSGYTQYF
B52: TCR CALSEAFPPLYNFNKFYF / CASSLFATSGKDTQYF (TCR)
alpha TRAV19 TRAJ21 CDR3: CALSEAFPPLYNFNKFYF
beta TRBV5-6 TRBJ2-3 CDR3: CASSLFATSGKDTQYF
B53: TCR CAASMSTNQGGKLIF / CSADRYAYEQYF (TCR)
alpha TRAV13-1 TRAJ23 CDR3: CAASMSTNQGGKLIF
beta TRBV20-1 TRBJ2-7 CDR3: CSADRYAYEQYF
B54: TCR512 (TCR)
alpha TRAV13-1 TRAJ23 CDR3: CAAPYNQGGKLIF
beta TRBV19 TRBJ1-5 CDR3: CASSIVRGLYSNQPQHF
B55: TCR CIVRVGTNQGGKLIF / CASSMGLALETQYF (TCR)
alpha TRAV26-1 TRAJ23 CDR3: CIVRVGTNQGGKLIF
beta TRBV19 TRBJ2-5 CDR3: CASSMGLALETQYF

The target in this experiment is T1, HA69 peptide on HLA …. As to the kind of experiment: activation reporter or marker.
Take B1: the binding result is on record as “recognises”.
As to B2, the binding result is “recognises”.
For B3, the binding result is “recognises”.
With B4, the binding result is “no recognition”.
In the case of B5 it was “recognises”; in that of B6, “no recognition”.
Take B7: the binding result is recorded as “recognises”.
In the case of B8, the binding result is “no recognition”.
In the case of B9 it was “recognises”.
For the molecule B10, the binding result is reported as “no recognition”.
With B11, the binding result is recorded as “recognises”.
For the molecule B12, the binding result is “no recognition”.
For B13, the binding result is “no recognition”.
B14: the binding result is “recognises”.
Take B15: the binding result was “no recognition”.
As to B16, the binding result is “no recognition”.
On to B17, for which the binding result was “recognises”.
Take B18: the binding result is “recognises”.
Consider B19, for which the binding result is “recognises”.
In the case of B20, the binding result is recorded as “no recognition”.
As for B21, the binding result is “recognises”.
Take B22: the binding result is listed as “recognises”.
Consider B23, for which the binding result is “no recognition”.
B24: the binding result is reported as “recognises”.
In the case of B25 it was “recognises”; in that of B26, “recognises”; in that of B27, “recognises”.
In the case of B28 it was “recognises”; in that of B29, “recognises”; in that of B30, “recognises”.
Consider B31, for which the binding result is given as “no recognition”.
For B32 the value was “recognises”; for B33, “recognises”; for B34, “no recognition”.
B35: the binding result was “recognises”.
Take B36: the binding result is given as “recognises”.
For B37, the binding result was “no recognition”.
For B38 the value was “recognises”; for B39, “no recognition”.
For the molecule B40, the binding result is given as “no recognition”.
For B41 the value was “recognises”.
For B42 the value was “no recognition”.
With B43, the binding result is reported as “no recognition”.
With B44, the binding result was “recognises”.
On to B45, for which the binding result is “recognises”.
For B46 the value was “recognises”.
Take B47: the binding result was “no recognition”.
B48: the binding result is on record as “recognises”.
For B49, the binding result is “no recognition”.
For B50 the value was “recognises”; for B51, “no recognition”.
Take B52: the binding result is reported as “recognises”.
Regarding B53, the binding result is “recognises”.
For B54 the value was “recognises”; for B55, “recognises”.

The record behind these values is PMC9371724 (2022).
